The values that follow come from US20240209089A1.

The chains are these.
B1: phage clone No. 55 (S7) (VHH)
VHH: QLQLVESGGGLVQPGGSLRLSCAASGSIFSINGMGWYRQAPGKQREAVAVITSGGKIDYLDSVKGRFTISRDSAKNTVALQMNSLKPEDTAVYYCNAYGDVRRGEVRWGQGTQVTVSS
B2: phage clone No. 71 (S23) (VHH)
VHH: B1 VHH with L2V, A47L, V50A, I57T, R102Q
B3: phage clone No. 20 (C20) (VHH)
VHH: QVQLVESGGGLVQPGGSLRLSCAASGSIFSINTMGWYRQAPGKQRELVATMHSTGSTNYADSVKGRFTISRDNAKKTVYLQMNSLEPDDTAVYYCHVDDTGWGTVDSWGQGTQVTVS
B4: phage clone No. 46 (C46) (VHH)
VHH: QVQLVESGGGLVQAGGSLRLSCAASGVTFDDLAIGWFRQVPGKGREGVSTIGTSDGTAYYADSVKGRFTISSDNAKNTVYLQMNSLKPEDTAVYYCAVDLDYGLGSLLPMGYDYWGQGTQVTVSS
B5: phage clone No. 29 (C29) (VHH)
VHH: QVQLVESGGGLVQAGGSLRLSCVASGFTSDDYVIGWFRQAPGKEREGVSCISSSDGTTNYADSVKGRFTISSDNAKNTVYLQMNSLKPEDTAVYYCAADPMRVCPYSGTYYGILGFGTSGQGTQVTVSS
B6: phage clone No. 53 (S5) (VHH)
VHH: QVQLVESGGGLVQAGGSLRVSCAASGGTFSSTAMGWFRQAPGKEREFVAAISWSGGYTYYADSVRGRFTISRDNALNTVSLQMNSLKPEDTAVYYCAADISGLDTVAAGIFTEPNIDYWGKGTLVTVSS
B7: phage clone No. 24 (C24) (VHH)
VHH: QVQLVESGGGLVQPGGSLRLSCAASGPIFSINTMGWYRQAPGKQRELVATMHSTGSTNYADSVKGRFTISRDNAKKTVYLQMNSLKPDDTAVYYCHVDDTGWGTVDSWGQGIQVTVSS
B8: phage clone No. 70 (S22) (VHH)
VHH: B7 VHH with V2L, P27S, T100M, I112T
B9: phage clone No. 30 (C30) (VHH)
VHH: B7 VHH with A23V, P27S, S30A, T50D, T77K, T100R, I112T
B10: phage clone No. 45 (C45) (VHH)
VHH: B7 VHH with A40V, I112T
B11: phage clone No. 61 (S13) (VHH)
VHH: B7 VHH with V2L, A23V, A24V, P27S, S30A, T54Y, D88A, V97A, I112T
B12: phage clone No. 27 (C27) (VHH)
VHH: QLQLVESGGGLVQPGGSLRLSCVVSGSIFAINTMGWYRQAPGKQRELVATMHSGGSTNYADSVKGRFTISRDAAPKTVYLQMNSLKPADTAVYYCHADDSGWGTVDSWGQGIQVTVSS
B13: phage clone No. 77 (S29) (VHH)
VHH: QLQLVESGGGLVQPGGSLRLSCTASGIIFSINTMGWYRQAPGKQRELVADISSFGSTNYADSVKGRFTISRDNAKNSVYLQMNSLKPEDTAVYYCNAHDKGWGTVDSWGQGTQVTVSS
B14: phage clone No. 66 (S18) (VHH)
VHH: QLQLVESGGGLVQPGGSLRLSCAASGSIFSINTMGWYRQAPGKQRELVATMTSHGSTNYADSVKGRFTISRDNSKNTVYLQMNSLKLQDTAVYYCNANDMGWGTVDAWGQGTLVTVSS
B15: phage clone No. 37 (C37) (VHH)
VHH: QLQLVESGGGLVQAGGSLRLSCAASGLTFEDYAIGWFRQAPGKEREGISCIRIYDGNTYSAESVKGRFTISSDNAKNQVYLQINTLKPEDTAVYYCAAGSYYSCSVYPDYDMDYWGKGTLVTVSS
B16: phage clone No. 42 (C42) (VHH)
VHH: B15 VHH with L2V
B17: phage clone No. 2 (C2) (VHH)
VHH: B15 VHH with L2V, A14P, L27F, F29L, E30D, D31Y
B18: phage clone No. 54 (S6) (VHH)
VHH: QVQLVESGGGLVQPGGSLRLSCAVSGTIFSINTMGWYRQVPGKQRELVATITSSGSTKYADSVKGRFTVSRDNAKRTVFLQMDSLKPEDTAVYYCHANDVGWGTVNAWGQGTLVTVSS

Residue numbers refer to the chain shown, from its start.

The test addresses Fc protein. The test is described as follows: phage ELISA on coated Fc protein. (An ELISA detects its analyte on a solid surface through an enzyme-linked reagent.)
Turning to B1, the OD450 worked out at 0.059.

As for B2, the OD450 was determined as 0.093.

In turn, B3 gave an OD450 of 0.133.

B4: the OD450 came to 0.081.

Regarding B5, the OD450 is 0.115.

In the case of B6, the OD450 came out at 0.068.

As for B7, the OD450 came out at 0.083.

As for B8, the OD450 was 0.059.

For the molecule B9, the OD450 amounted to 0.103.

Molecule B10 registered an OD450 of 0.115.

In the case of B11, the OD450 came to 0.094.

The molecule B12 came in with an OD450 of 0.084.

B13 came in with an OD450 of 0.08.

B14: the OD450 was determined as 0.081.

B15 registered an OD450 of 0.11.

In turn, B16 showed an OD450 of 0.111.

B17 registered an OD450 of 0.149.

On to B18, for which the OD450 was 0.058.
